Assay [1] concerns the target T1, Orai1 (Homo sapiens, UniProt Q96D31). The assay can be described thus: Whole-cell patch clamp recording of ICRAC in transfected HEK 293 cells. The assay is classed as cell-based. More on the design: expressed in transfected cells; host or cells: HEK 293. Here is the method:
Electrophysiology. HEK 293 cells were transfected 8-24 h prior to electrophysiology experiments with STIM1- and Orai1-derived constructs in a 1:1 mass ratio using Lipofectamine 2000. […] ICRAC in cells cultured without LaCl3 was similar to that in cells cultured with LaCl3, but most cells without LaCl3 died soon after break-in.
Currents were recorded using standard whole-cell patch clamp techniques (Prakriya and Lewis, 2001). Pipettes of resistance 2-5 MΩ were filled with an internal solution containing (in mM) 150 Cs aspartate, 8 MgCl2, 10 EGTA, and 10 HEPES (pH 7.2 with CsOH). Currents were sampled at 5 kHz and filtered at 2 kHz, and all voltages were corrected for the junction potential of the pipette solution relative to Ringer's in the bath (−13 mV).
Patch-clamp Experiments. Pipette-membrane seals were formed in 2 mM Ca^2+ Ringer's solution. After break-in to the whole-cell configuration, voltage stimuli consisting of a 100-ms step to −100 mV followed by a 100-ms ramp from −100 to +100 mV were delivered every 5 s from the holding potential of +30 mV. After the currents reached a steady level (˜300 s for wild-type STIM1), the external solution was changed via a multibarrel local perfusion pipette to a high-Ca^2+ Ringer's containing (in mM) 130 NaCl, 4.5 KCl, 20 CaCl2, 1 MgCl2, 10 D-glucose, and 5 HEPES (pH 7.4 with NaOH). All data were leak-corrected using the current elicited in 20 mM Ca^2+ Ringer's+10 μM LaCl3 at the end of the each experiment. LaCl3 and 2-APB were added directly to parent solutions on the day of the experiment from 10 mM and 100 mM stocks in H2O and DMSO, respectively.
As a definitive test for CRAC channel activation, we conducted whole-cell patch clamp recordings from HEK 293 cells transiently transfected with myc-Orai1 and either YFP-STIM1 or YFP-CAD. In cells expressing full length YFP-STIM1, ICRAC appeared over several minutes following break-in, consistent with the typical slow activation seen in response to passive store depletion (FIG. 2D). […] In contrast, inward current was present from the moment of break-in in cells expressing YFP-CAD (FIG. 2E). This current was identified as ICRAC based on its dependence on extracellular Ca^2+, inward rectification, sequential enhancement and inhibition by 2-APB, and inhibition by La^3+ (FIG. 2E and FIG. 10 C, D). ICRAC was not observed at break-in in HEK 293 cells transfected with YFP or YFP-CAD in the absence of Orai1 (FIG. 2F), consistent with the low level of endogenous STIM1 and Orai1 in these cells. […] Inactivation was restored by addition of STIM1 residues carboxy-terminal to CAD.
In general terms: The patch-clamp technique gives a direct electrical read-out from membranes.

For another assay, the target named is T2, CRAC channels (Homo sapiens, UniProt Q96D31).
T2 construct: expressed in transfected cells; host or cells: HEK 293
The assay is described as follows: [Ca2+]i imaging in HEK 293 cells expressing STIM1 fragment and Orai1. Particulars: for effect on CAD-induced sustained elevation of [Ca2+]i: HEK 293 cells expressing Orai1 and CAD. The assay is classed as cell-based. Here is the method: Ca^2+ Imaging. For FIG. 2, cells were loaded at 37° C. in DMEM with 1 μM fura-2/AM for 30 min. Ratiometric Ca2+ imaging was performed at 340 and 380 nm in 2 mM Ca2+ Ringer's solution with a Nikon Eclipse 2000-U inverted microscope equipped with a fluorescent arc lamp, excitation filter wheel, and a Hamamatsu Orca CCD camera. Images were collected using Openlab (Improvision) and analyzed using Igor Pro.
To determine if CAD activates store operated Ca^2+ influx in cells, we measured [Ca^2+]i in HEK 293 cells expressing CAD and Orai1.

Assay [2] deals with T3, CAD (Homo sapiens, UniProt Q13586).
T3 construct: For STIM1 342-448 (CAD); expressed in transfected cells; host or cells: HEK 293T
The assay can be described thus: Co-immunoprecipitation of Orai1 fragments with CAD in HEK 293T cells. It is filed as binding. Particulars: YFP-tagged Orai1 fragment with Flag-myc-CAD in HEK 293T cells. Here is the method:
(§1) Immunoprecipitation and Immunoblot Analysis. Transfected HEK 293T cells (12-24 h) were washed with PBS and lysed in 50 mM Tris-HCl pH 7.5, 150 mM NaCl, 1% Triton X-100, and protease inhibitors. Lysates were spun at 12,000 rpm for 10 min, and the supernatant was incubated with anti-Flag M2 agarose beads (Sigma), or anti-myc or -HA antibody followed by IgG agarose beads (Pierce). Lysates and immunoprecipitates were subjected to SDS-PAGE, probed with HRP-conjugated secondary antibody and detected by enhanced chemiluminescence (Pierce).
(§2) STIM1-CAD BINDS TO THE N- AND C-TERMINI OF ORAI1. To identify regions of Orai1 important for activation by CAD, we characterized the binding of CAD to Orai1 using two approaches. First we expressed fusions of NubG with the N-terminus, the II-III cytoplasmic loop and the C-terminus of Orai1 in yeast together with different CAD-Cub-LV constructs. […] Based on the level of b-gal activity, CAD appears to interact with the Orai1 C-terminus with a higher affinity than with the N-terminus. We next expressed fusions of YFP with the N-terminus, the II-III loop and the C-terminus of Orai1 in HEK 293T cells together with Flag-myc-CAD.
(§3) To explore the interaction between the N-terminus of Orai1 and CAD in more detail we mapped the subregion within the N-terminus of Orai1 that is responsible for CAD binding, using both the split ubiquitin and HEK 293T co-immunoprecipitation assays.

Assay [3] addresses T3, CAD. The assay can be described thus: Yeast split ubiquitin assay, Orai1 fragments with CAD. Particulars: NubG-Orai1 fragment with CAD-Cub-LV in yeast. It is filed as binding. As for the experimental part: Split-Ubiquitin Yeast Two Hybrid Assay. Screening was performed according to the manufacturer's instructions (Dualsystems Biotech). Transformed yeast were selected on media lacking Trp and Leu (-TL). Interaction was observed by cell growth on plates lacking Trp, Leu, and His (TLH) in the presence of 3-aminotriazole (3-AT). Protein interactions were also assessed by measuring lacZ activity using the chromogenic substrate X-gal (5-bromo-4-chloro-3-indolyl-β-galactopyranoside).
Split-Ubiquitin Yeast Two Hybrid Assay. To generate fusion proteins with the N-terminal half of ubiquitin (Nub), full-length or fragments of Orai1 were amplified by PCR and cloned into the pDL2-Nubx vector (Dualsystems Biotech). The Nub sequence in the pDL2-Nubx plasmid contains a point mutation (NubG) that abolishes the spontaneous association of Nub to the C-terminal half of ubiquitin (Cub). The CAD was subcloned into the pAMBV4 vector, which contains Cub fused to a chimeric transcription factor consisting of the DNA binding domain from LexA and the VP16 transactivation domain.
as §2, §3

For assay [4], the target named is T1, Orai1. The assay is described as follows: Co-immunoprecipitation with Orai1 in HEK 293T cells. It is filed as binding. Set-up: expressed in transfected cells; host or cells: HEK 293. The note with it: 150 mM salt, 1% Triton X-100. As for the experimental part: as §1
CAD Associates with Orai1 in vivo and in vitro. Because cytosolic CAD is a potent activator of Orai1 channels and is not associated with the ER, we hypothesized that CAD binds to Orai1. To test this idea, we first expressed YFP-CAD with or without myc-Orai1 in HEK 293 cells and examined its intracellular localization. […] To provide additional evidence that CAD and Orai1 are part of the same protein complex we expressed Flag-tagged CAD and GFP-tagged Orai1 in HEK 293T cells and immunoprecipitated CAD with anti-Flag antibodies. GFP-myc-Orai1 was detected in the immunoprecipitates from cells co-expressing CAD and Orai1 but not from cells expressing CAD or Orai1 alone (FIG. 3B).
Thus, CAD and Orai1 form a protein complex in mammalian cells.

T1 sequence (Q96D31 whole entry): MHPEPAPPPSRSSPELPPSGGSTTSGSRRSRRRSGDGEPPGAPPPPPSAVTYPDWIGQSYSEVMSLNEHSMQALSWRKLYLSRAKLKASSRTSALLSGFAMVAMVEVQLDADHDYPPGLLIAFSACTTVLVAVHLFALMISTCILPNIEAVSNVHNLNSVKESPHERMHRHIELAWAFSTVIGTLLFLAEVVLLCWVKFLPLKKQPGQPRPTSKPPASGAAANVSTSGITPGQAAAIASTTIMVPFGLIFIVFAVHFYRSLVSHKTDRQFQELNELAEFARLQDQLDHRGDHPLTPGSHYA
T2 sequence (Q96D31 whole entry): as above
T3 sequence (Q13586 342-448): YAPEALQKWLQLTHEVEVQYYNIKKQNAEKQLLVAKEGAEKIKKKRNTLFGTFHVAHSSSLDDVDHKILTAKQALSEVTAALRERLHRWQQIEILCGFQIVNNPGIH

Regarding `NCCOB(c1ccccc1)c1ccccc1` [2-APB, 2-Aminoethoxydiphenylborate, reference compound], the “effect on constitutive CAD-dependent ICRAC” value at Orai1 [1] (YFP-CAD+myc-Orai1 HEK 293 cell, 50 μM 2-APB, 20 mM Ca2+) is reported as “increase in CAD-dependent current followed by a slower inhibition”. Further, the “effect on CAD-induced sustained elevation of [Ca2+]i” value at CRAC channels (100 μM 2-APB) is on record as “blocked”.

`[Cl][La]([Cl])[Cl]` [La^3+, LaCl3, reference compound]: the “effect on CAD-supported current” value on Orai1 [1] (YFP-CAD+myc-Orai1 cell, 10 μM LaCl3, 20 mM Ca2+o) is given as “rapid inhibition of current”. Besides, at CRAC channels (10 μM La3+), the “effect on CAD-induced sustained elevation of [Ca2+]i” value is listed as “blocked”.

Turning to “C-terminus of Orai1: Orai1 C-terminal fragment, SEQ ID NO:6 (HFYRSLVSHKTDRQFQELNELAEFARLQDQLDHRGDHPLTPGSHYA; H. sapiens)”, the “co-immunoprecipitation with CAD” value with CAD [2] is listed as “interacts”. Moreover, the “interaction with CAD (b-gal, growth without histidine)” value with CAD [3] is on record as “strong interaction”.

“CAD (342-440): CAD peptide with the last 8 aa deleted”: the “co-immunoprecipitation with Orai1” value in the assay with Orai1 [4] is “retained the ability to bind to Orai1”. Further, the “[Ca2+]i / CRAC channel activation” value in the assay with CRAC channels (HEK 293 cells coexpressing construct and Orai1, no store depletion) is reported as “eliminates its ability to activate CRAC channels”.

Consider “II-III loop of Orai1: Orai1 II-III cytoplasmic loop aa 142-177, SEQ ID NO:5”, for which, in the assay with CAD [2], the “co-immunoprecipitation with CAD” value is reported as “not”. Further, the “interaction with CAD (b-gal, growth without histidine)” value in the assay with CAD [3] is recorded as “lack of interaction”.

“N-terminus of Orai1 (aa 1-91): Orai1 N-terminal fragment aa 1-91, SEQ ID NO:2”: the “co-immunoprecipitation with CAD” value with CAD [2] is reported as “only very weakly”; with CAD [2] (listed as N-terminus), “interacts”. Besides, in the assay with CAD [3], the “interaction with CAD (b-gal, growth without histidine)” value is “weaker interaction”.

Regarding “Orai148-70: Orai1 fragment aa 48-70 (SAVTYPDWIGQSYSEVMSLNEHS; UniProt Q96D31 48-70, looked up, fragment)”, in the assay with CAD [3], the “interaction with CAD (b-gal, growth without histidine)” value was “not”.

For the molecule “Orai148-91: Orai1 N-terminal fragment aa 48-91, SEQ ID NO:3”, the “co-immunoprecipitation with CAD” value with CAD [2] is reported as “co-immunoprecipitated”; with CAD [2] (listed as Orai1-NT(48-91)) it was “co-immunoprecipitates”. Moreover, in the assay with CAD [3], the “interaction with CAD (b-gal, growth without histidine)” value was “interacted strongly”.

Regarding Orai168-91: Orai1 fragment aa 68-91, the “interaction with CAD (b-gal, growth without histidine)” value with CAD [3] is given as “interacted strongly”.

As for “YFP-CT-STIM1: YFP-tagged CT-STIM1 (236-685) [reference compound]”, the “constitutive ICRAC” value with Orai1 [1] (HEK 293 cells cotransfected with construct and myc-Orai1, from break-in) is listed as “failed to activate constitutive ICRAC”.

The values are drawn from US20120165265A1, “Calcium Signaling Modulators Involving STIM and ORAI Proteins” (priority 2009, published 2012).
